Laboratory results from EP0662093B1.

Assays:
[1] = molecular target: HIV-1 RF gp120 (HIV-1 strain RF) (UniProt P04579); experiment: cell-based or functional assay
[2] = molecular target: native HIV-1IIIB gp120 (HIV-1 strain IIIB) (UniProt P04578); experiment: cell-based or functional assay
[3] = molecular target: native HIV-1MN gp120 (HIV-1 strain MN) (UniProt P05877); experiment: cell-based or functional assay
[4] = molecular target: peptide aa 302-316 of HIV-1MN gp120 (HIV-1 strain MN); experiment: ELISA on coated peptide (250 ng/well); 19.0ng antibody
[5] = molecular target: peptide aa 312-326 of HIV-1MN gp120 (HIV-1 strain MN); experiment: as above
[6] = molecular target: peptide aa 322-336 of HIV-1MN gp120 (HIV-1 strain MN); experiment: as above
[7] = molecular target: peptide aa 302-316 of HIV-1MN gp120 (HIV-1 strain MN); experiment: ELISA on coated peptide (250 ng/well); 4.75ng antibody
[8] = molecular target: peptide aa 312-326 of HIV-1MN gp120 (HIV-1 strain MN); experiment: as above
[9] = molecular target: peptide aa 322-336 of HIV-1MN gp120 (HIV-1 strain MN); experiment: as above
[10] = molecular target: peptide aa 302-316 of HIV-1MN gp120 (HIV-1 strain MN); experiment: ELISA on coated peptide (250 ng/well); 9.50ng antibody
[11] = molecular target: peptide aa 312-326 of HIV-1MN gp120 (HIV-1 strain MN); experiment: as above
[12] = molecular target: peptide aa 322-336 of HIV-1MN gp120 (HIV-1 strain MN); experiment: as above
[13] = molecular target: native HIV-1MN gp120 (HIV-1 strain MN) (UniProt P05877); experiment: radioimmunoassay of hybridoma supernatant on HIV-1MN-infected against uninfected H9 cells
[14] = molecular target: native HIV-1MN gp120 (HIV-1 strain MN) (UniProt P05877); experiment: ELISA of hybridoma supernatant on membranes of HIV-1MN-infected against uninfected H9 cells
[15] = molecular target: peptide aa 302-316 of HIV-1MN gp120 (HIV-1 strain MN); experiment: ELISA on coated peptide (250 ng/well); 500ng MIgG
[16] = molecular target: peptide aa 312-326 of HIV-1MN gp120 (HIV-1 strain MN); experiment: ELISA on coated peptide (250 ng/well); 500ng MIgG
[17] = molecular target: peptide aa 322-336 of HIV-1MN gp120 (HIV-1 strain MN); experiment: ELISA on coated peptide (250 ng/well); 500ng MIgG

Sequence of UniProt P04579 (P04579 32-519 limits assumed): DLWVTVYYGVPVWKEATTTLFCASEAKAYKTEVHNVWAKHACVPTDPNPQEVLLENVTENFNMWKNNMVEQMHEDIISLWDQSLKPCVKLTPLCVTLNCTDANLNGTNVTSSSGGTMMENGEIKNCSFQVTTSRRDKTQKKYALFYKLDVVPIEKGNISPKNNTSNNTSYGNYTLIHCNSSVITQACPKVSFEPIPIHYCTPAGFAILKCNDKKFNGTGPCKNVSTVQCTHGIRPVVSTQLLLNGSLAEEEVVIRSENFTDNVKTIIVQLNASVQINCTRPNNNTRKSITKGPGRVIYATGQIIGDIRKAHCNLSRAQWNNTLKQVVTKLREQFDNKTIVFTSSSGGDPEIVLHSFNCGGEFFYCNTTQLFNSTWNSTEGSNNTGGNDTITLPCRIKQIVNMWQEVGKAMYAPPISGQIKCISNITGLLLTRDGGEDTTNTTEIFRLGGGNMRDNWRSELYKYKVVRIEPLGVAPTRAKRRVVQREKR

monoclonal antibody NM-01 was tested, and the ID50, inhibition of live RF virus, RT assay [1] was 0.05 µg/mL, the ID50, inhibition of syncytium formation by RF-infected cells [1] was 4 µg/mL and the percent inhibition of syncytium formation by RF-infected cells at 25 µg antibody [1] was 59%. For the same substance, the ID50, inhibition of syncytium formation by IIIB-infected H9 cells with C8166 cells [2] was 3 µg/mL, the ID50, neutralization of live IIIB isolate, MT-2 assay [2] was 0.1 µg/mL and the ID50, neutralization of live IIIB virus, RT assay [2] was 0.1 µg/mL. It also gave an ID50, neutralization of live IIIB virus, RT assay (run with F58/H3 and P4/D10) [2] of 0.1 µg/mL, a percent inhibition of syncytium formation by IIIB-infected cells at 25 µg antibody [2] of 85% and a 50% inhibition of viral infectivity (ID50), live MN virus, RT assay [3] of less than 1 µg/mL. It also gave a 50% inhibition of viral infectivity (ID50), live MN virus, RT assay (run with F58/H3 and P4/D10) [3] of less than 1 µg/mL, an ID50, inhibition of syncytium formation by MN-infected H9 cells with C8166 cells [3] of 2 µg/mL and an ID50, neutralization of live MN isolate, MT-2 assay [3] of 2 µg/mL. For the same substance, the percent inhibition of syncytium formation by MN-infected cells at 25 µg antibody [3] was 85%, the Optical density at 650nm [4] was 0.024 OD 650nm and the Optical density at 650nm [5] was 1.14 OD 650nm. It also gave an Optical density at 650nm [6] of 0.03 OD 650nm, an Optical density at 650nm [7] of 0.024 OD 650nm and an Optical density at 650nm [8] of 0.781 OD 650nm. The Optical density at 650nm [9] was 0.03 OD 650nm, the Optical density at 650nm [10] was 0.024 OD 650nm and the Optical density at 650nm [11] was 0.827 OD 650nm. The Optical density at 650nm [12] was 0.028 OD 650nm, the Ratio cpm inf/cpm uninf (RIA) [13] was 9.81 and the ratio infected/uninfected (ELISA, Run 1) [14] was 5.76.

In the case of mouse IgG (antibody), the Optical density at 650nm [15] is reported as 0.049 OD 650nm, the Optical density at 650nm [16] is reported as 0.043 OD 650nm and the Optical density at 650nm [17] is reported as 0.042 OD 650nm.
